Data reported in patent US20180223285.

Assays:
human C5 (Homo sapiens) = human C5 (Homo sapiens) (UniProt P01031); assay: cell_activity; settings: maximal 2'-OMe purine and 2'-F pyrimidine substitution; complement-dependent sheep erythrocyte hemolysis in human serum; positive control
human C5a (Homo sapiens) = biological target: T1, human C5a (Homo sapiens) (UniProt P01031); assay: SPR; settings: L-RNA
T1 sequence: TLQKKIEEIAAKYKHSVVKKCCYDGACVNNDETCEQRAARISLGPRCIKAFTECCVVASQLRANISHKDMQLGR

mouse C5a (Mus musculus) = biological target: T2, mouse C5a (Mus musculus) (UniProt P06684); assay: SPR; settings: L-RNA, Biacore, HBS-EP, 37 C
T2 sequence: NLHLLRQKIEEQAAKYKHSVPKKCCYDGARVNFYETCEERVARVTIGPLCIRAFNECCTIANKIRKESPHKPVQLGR

[1] = biological target: T3, human desArg-C5a (Homo sapiens) (UniProt P01031); assay: SPR; settings: L-RNA, 5' 40 kDa PEG, Biacore, HBS-EP, 37 C
T3 sequence: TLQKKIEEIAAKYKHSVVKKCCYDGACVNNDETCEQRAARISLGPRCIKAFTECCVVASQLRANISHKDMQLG

[2] = biological target: T4, mouse desArg-C5a (Mus musculus) (UniProt P06684); assay: SPR; settings: L-RNA; L-2'-deoxy dU7,dU28,dC38; 5' 40 kDa PEG; Biacore, HBS-EP, 37 C
T4 sequence: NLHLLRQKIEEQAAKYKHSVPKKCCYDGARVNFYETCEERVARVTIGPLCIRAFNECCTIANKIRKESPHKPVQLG

[3] = L-2'-deoxy dU5,dG12,dA13,dU26,dU28,dC36, terminal stretch truncated to one nucleotide, reduced activity, exact value in figure

C5C6 aptamer (Biesecker et al. 1999)
IC50 (human C5 (Homo sapiens)): 1000 nM

GAUGUGGUGGUGAAGGGUUGUUGGGUGUCGACGCACAGC [NOX-D19001-6xDNA-024]
Kd (human C5a (Homo sapiens); [3]): < 10 nM

GAUGUGGUGGUGAAGGGUUGUUGGGUGUCGACGCACAGGC [NOX-D19001-6xDNA-010]
Kd (human C5a (Homo sapiens); [3]): < 10 nM

GAUGUGGUGGUGAAGGGUUGUUGGGUGUCGACGCACGC [NOX-D19001-6xDNA-029]
Kd (human C5a (Homo sapiens); [3]): < 10 nM

GCCUGAUGUGGUGGUGAAGGGUUGUUGGGUGUCGACGCACAGGC [NOX-D19001 (274-C8-002-G14)]
Kd (human C5a (Homo sapiens); Biacore, HBS-EP, 37 C): 1.38 nM
Kd (mouse C5a (Mus musculus)): 0.3 nM

GCCUGAUGUGGUGGUGAAGGGUUGUUGGGUGUCGACGCACAGGC [NOX-D19001-6xDNA (D09-16-17-30-32-40)]
Kd (human C5a (Homo sapiens); L-2'-deoxy dU9,dG16,dA17,dU30,dU32,dC40, Biacore, HBS-EP, 37 C): 0.361 nM

GCCUGAUGUGGUGGUGAAGGGUUGUUGGGUGUCGACGCACAGGC [NOX-D19001-D09]
Kd (human C5a (Homo sapiens); L-2'-deoxy dU9, Biacore, HBS-EP, 37 C): 0.709 nM

GCGAUGUGGUGGUGAAGGGUUGUUGGGUGUCGACGCAC [NOX-D19001-6xDNA-032]
Kd (human C5a (Homo sapiens); L-2'-deoxy dU7,dG14,dA15,dU28,dU30,dC38, terminal stretch truncated to one nucleotide, reduced activity, exact value in figure): < 10 nM

GCGAUGUGGUGGUGAAGGGUUGUUGGGUGUCGACGCACGC [NOX-D20 (NOX-D19001-6xDNA-020-5'40kDa-PEG)]
Kd (human C5a (Homo sapiens); L-2'-deoxy dU7,dG14,dA15,dU28,dU30,dC38, 5' 40 kDa PEG, Biacore, HBS-EP, 37 C): 0.299 nM
Kd (mouse C5a (Mus musculus); L-2'-deoxy dU7,dG14,dA15,dU28,dU30,dC38, 5' 40 kDa PEG): 0.019 nM
Kd ([1]; L-2'-deoxy dU7,dG14,dA15,dU28,dU30,dC38): 0.316 nM

GCGAUGUGGUGGUGAAGGGUUGUUGGGUGUCGACGCACGC [NOX-D21 (NOX-D19001-2dU-1dC-020-5'40kDa-PEG)]
Kd (human C5a (Homo sapiens); L-2'-deoxy dU7,dU28,dC38, 5' 40 kDa PEG, Biacore, HBS-EP, 37 C): 0.815 nM
Kd (mouse C5a (Mus musculus); L-2'-deoxy dU7,dU28,dC38, 5' 40 kDa PEG): 0.029 nM
Kd [2]: 0.028 nM
Kd ([1]; L-2'-deoxy dU7,dU28,dC38): 0.854 nM

GCGAUGUGGUGGUGAAGGGUUGUUGGGUGUCGACGCACGC [NOX-D19001-2xDNA-020]
Kd (human C5a (Homo sapiens); L-2'-deoxy dU7,dU28, stated as improved by more than factor 10 vs 11.3 nM of NOX-D19001-020, exact value in figure): < 1.13 nM

GCGAUGUGGUGGUGAAGGGUUGUUGGGUGUCGACGCACGC [NOX-D19001-3dU-1dC-020]
Kd (human C5a (Homo sapiens); L-2'-deoxy dU7,dU28,dU30,dC38, stated as improved by more than factor 10 vs 11.3 nM of NOX-D19001-020, exact value in figure): < 1.13 nM

GCGAUGUGGUGGUGAAGGGUUGUUGGGUGUCGACGCACGC [NOX-D19001-3xDNA-020]
Kd (human C5a (Homo sapiens); L-2'-deoxy dU7,dU28,dU30, stated as improved by more than factor 10 vs 11.3 nM of NOX-D19001-020, exact value in figure): < 1.13 nM

GCGAUGUGGUGGUGAAGGGUUGUUGGGUGUCGACGCACGC [NOX-D19001-020]
Kd (human C5a (Homo sapiens); Biacore, HBS-EP, 37 C): 11.3 nM

GCGAUGUGGUGGUGAAGGGUUGUUGGGUGUCGACGCACGC [NOX-D20001 (NOX-D19001-6xDNA-020)]
Kd (human C5a (Homo sapiens); L-2'-deoxy dU7,dG14,dA15,dU28,dU30,dC38, Biacore, HBS-EP, 37 C): 0.3 nM

GCGAUGUGGUGGUGAAGGGUUGUUGGGUGUCGACGCACGC [NOX-D21001 (NOX-D19001-2dU-1dC-020)]
Kd (human C5a (Homo sapiens); L-2'-deoxy dU7,dU28,dC38, stated as improved by more than factor 10 vs 11.3 nM of NOX-D19001-020, exact value in figure): < 1.13 nM
